From US20190071487A1 (Memorial Sloan Kettering, published 2019)

Biological target: BTLA (B and T lymphocyte attenuator) on human lymphoma B cells (human, UniProt Q7Z6A9 31-289)
Experiment: cell-based or functional assay

B1: Leu39-Val202 soluble HVEM ectodomain polypeptide (receptor)
chain: LPSCKEDEYPVGSECCPKCSPGYRVKEACGELTGTVCEPCPPGTYIAHLNGLSKCLQCQMCDPAMGLRASRNCSRTENAVCGCSPGHFCIVQDGDHCAACRAYATSSPGQRVQKGGTESQDTLCQNCPPGTFSPNGTLEECQHQTKCSWLVTKAGAGTSSSHWV
correlation of percent pSyk inhibition by solHVEM with BTLA surface expression (ratio of MFI), ten primary human FL B cell samples: 0.697 r
